# Laboratory results as given in article PMC7073074 (2020).
# B1: FLAG-tagged coronin A lacking the coiled coil (protein)
# chain: MSKVVRSSKYRHVFAAQPKKEECYQNLKVTKSAWDSNYVAANTRYFGVIWDAAGGGSFAVIPHEASGKTTSVPLFNGHKSAVLDIAFHPFNENLVGSVSEDCNICIWGIPEGGLTDSISTPLQTLSGHKRKVGTISFNPVADNVAVTSSGDFLVKTWDVEQGKNLTTVEGHSDMITSCEWNHNGSQIVTTCKDKKARVFDPRTNSIVNEVVCHQGVKNSRAIFAKDKVITVGFSKTSERELHIYDPRAFTTPLSAQVVDSASGLLMPFYDADNSILYLAGKGDGNIRYYELVDESPYIHFLSEFKSATPQRGLCFLPKRCLNTSECEIARGLKVTPFTVEPISFRVPRKSDIFQDDIYPDTYAGEPSLTAEQWVSGTNAEPKTVSLAGGFVKKASAVEFKPVVQVQEGPKN
# B2: FLAG-tagged coronin A (protein)
# chain: MSKVVRSSKYRHVFAAQPKKEECYQNLKVTKSAWDSNYVAANTRYFGVIWDAAGGGSFAVIPHEASGKTTSVPLFNGHKSAVLDIAFHPFNENLVGSVSEDCNICIWGIPEGGLTDSISTPLQTLSGHKRKVGTISFNPVADNVAVTSSGDFLVKTWDVEQGKNLTTVEGHSDMITSCEWNHNGSQIVTTCKDKKARVFDPRTNSIVNEVVCHQGVKNSRAIFAKDKVITVGFSKTSERELHIYDPRAFTTPLSAQVVDSASGLLMPFYDADNSILYLAGKGDGNIRYYELVDESPYIHFLSEFKSATPQRGLCFLPKRCLNTSECEIARGLKVTPFTVEPISFRVPRKSDIFQDDIYPDTYAGEPSLTAEQWVSGTNAEPKTVSLAGGFVKKASAVEFKPVVQVQEGPKNEKELREEYEKLKIRVAYLESEIVKKDAKIKELTN
# Experiments:
# [1] = target: T1, rabbit muscle F-actin (Oryctolagus cuniculus (Rabbit), UniProt P68135); test: F-actin co-sedimentation, Coomassie SDS-PAGE
# [2] = target: T1, rabbit muscle F-actin; test: F-actin co-sedimentation, Coomassie SDS-PAGE (apparent Kd given only as 8.9 µg, CI 5-20 µg); low ionic strength: co-pellets at 50 mM NaCl but not at 100 or 150 mM NaCl; polymerised (F-)actin
Binder,binding result [1],binding result [2]
B1,no binding,–
B2,–,binds
